In patent US20190092852A1 (Genentech, published 2019):

Assays:
human IL-33 N-His = target: T1, human IL-33 N-His (human); experiment: cell-based or functional assay
T1 chain: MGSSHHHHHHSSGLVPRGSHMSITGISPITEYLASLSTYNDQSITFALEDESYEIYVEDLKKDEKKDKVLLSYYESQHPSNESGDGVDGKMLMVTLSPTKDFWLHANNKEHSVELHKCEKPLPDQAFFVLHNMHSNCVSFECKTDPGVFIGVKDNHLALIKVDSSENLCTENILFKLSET

[1] = target: T2, human IL-33 (construct not stated) (human, UniProt O95760 112-270); experiment: cell-based or functional assay
T2 sequence (looked up): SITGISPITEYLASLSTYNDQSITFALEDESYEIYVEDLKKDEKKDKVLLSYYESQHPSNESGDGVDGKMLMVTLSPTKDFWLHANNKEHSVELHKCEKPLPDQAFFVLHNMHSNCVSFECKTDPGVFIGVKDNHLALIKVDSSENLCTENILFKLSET

[2] = target: T2, human IL-33 (construct not stated); experiment: SPR, BIACORE 3000, antibody captured on anti-human Fab, 25 C, 1:1 Langmuir model; lot 1
Description: (§1) The binding kinetics of the bispecific antibody 10C12-IL13 KIH IgG4 to human IL-33, cyno IL-33, and human IL-13 was assessed using SPR on a BIACORE® 3000 (GE Healthcare). Anti-human Fab (GE Healthcare) was immobilized on a CM5 sensor chip via amine-based coupling according to the manufacturer's protocol. The bispecific antibody was captured and binding was measured to human IL-33 (Genentech), cyno IL-33 (Genentech), and human IL-13 (Peprotech). […] Sensograms for binding of cytokine were recorded using an injection time of 2 min with a flow rate of 30 μl/min, at a temperature of 25° C., and with a running buffer of 10 mM HEPES, pH 7.4, 150 mM NaCl, 3 mM EDTA, and 0.005% TWEEN®-20. After injection, disassociation of the ligand from the antibody was monitored for 600 sec in running buffer. The surface was regenerated between binding cycles with a 40 μl injection of 10 mM Glycine-HCl pH 2.1. After subtraction of a blank which contained running buffer only, sensograms observed for cytokine binding to the bispecific antibody were analyzed using a 1:1 Langmuir binding model with software supplied by the manufacturer to calculate the kinetics and binding constants, including the dissociation constant (KD).

human IL-13 (Peprotech) [3] = target: T3, human IL-13 (Peprotech) (human, UniProt P35225 35-146); experiment: as above
Description: as §1

[4] = target: T4, cyno IL-33 (construct not stated) (cynomolgus monkey, UniProt A0A2K5W3I1 112-269); experiment: as above
T4 construct: also called cynomolgus IL-33; cyno IL-33 (Genentech)
T4 sequence: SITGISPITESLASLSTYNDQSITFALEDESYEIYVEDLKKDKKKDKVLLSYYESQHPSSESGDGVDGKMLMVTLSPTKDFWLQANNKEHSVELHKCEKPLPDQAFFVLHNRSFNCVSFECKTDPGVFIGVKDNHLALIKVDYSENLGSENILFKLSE
Description: as §1

[5] = target: T2, human IL-33 (construct not stated); experiment: SPR, BIACORE 3000, antibody captured on anti-human Fab, 25 C, 1:1 Langmuir model; lot 2
Description: as §1

human IL-13 (Peprotech) [6] = target: T3, human IL-13 (Peprotech); experiment: as above
Description: as §1

[7] = target: T4, cyno IL-33 (construct not stated); experiment: as above
Description: as §1

[8] = target: T2, human IL-33 (construct not stated); experiment: SPR, BIACORE 3000, antibody captured on anti-human Fab, 25 C, 1:1 Langmuir model; lot 3
Description: as §1

human IL-13 (Peprotech) [9] = target: T3, human IL-13 (Peprotech); experiment: as above
Description: as §1

[10] = target: T4, cyno IL-33 (construct not stated); experiment: as above
Description: as §1

[11] = target: T2, human IL-33 (construct not stated); experiment: SPR Biacore 3000, captured by anti-human Fab, 25 C, mean of three lots
Description: (§2) The binding kinetics of the bispecific antibody 10C12-IL-13 KIH IgG4 to human IL-33, cyno IL-33, and human IL-13 was assessed using BIACORE® 3000 SPR (FIG. 20).
as §1

human IL-13 (Peprotech) [12] = target: T3, human IL-13 (Peprotech); experiment: as above
Description: as §2, §1

[13] = target: T4, cyno IL-33 (construct not stated); experiment: as above
Description: as §2, §1

T3 sequence (P35225 35-146 limits assumed): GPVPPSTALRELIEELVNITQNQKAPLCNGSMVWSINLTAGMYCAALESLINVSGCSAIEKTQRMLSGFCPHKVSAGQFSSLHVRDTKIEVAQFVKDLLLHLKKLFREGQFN

IC50; SEAP reporter, HEK-BLUE IL-33 cells, 15 pM human IL-33 N-His, 20 h (human IL-33 N-His): 25.4 pM
IC50 (read off the curve); phospho-p38 MFI in CD123+ basophils (average from 2 donors), 10 ng/ml IL-33 [1]: ~0.5 nM
Kd [2]: 0.01 nM
koff [2]: 1.1e-05 s⁻¹
kon [2]: 1.1e+06 M⁻¹ s⁻¹
Kd (human IL-13 (Peprotech) [3]): < 0.01 nM
koff (human IL-13 (Peprotech) [3]): 2e-06 s⁻¹
kon (human IL-13 (Peprotech) [3]): 1.49e+06 M⁻¹ s⁻¹
Kd [4]: 0.107 nM
koff [4]: 7.2e-05 s⁻¹
kon [4]: 670000 M⁻¹ s⁻¹
Kd [5]: 0.026 nM
koff [5]: 3e-05 s⁻¹
kon [5]: 1.14e+06 M⁻¹ s⁻¹
Kd (human IL-13 (Peprotech) [6]): < 0.01 nM
koff (human IL-13 (Peprotech) [6]): 4e-06 s⁻¹
kon (human IL-13 (Peprotech) [6]): 1.47e+06 M⁻¹ s⁻¹
Kd [7]: 0.062 nM
koff [7]: 4e-05 s⁻¹
kon [7]: 650000 M⁻¹ s⁻¹
Kd [8]: 0.041 nM
koff [8]: 4e-05 s⁻¹
kon [8]: 990000 M⁻¹ s⁻¹
Kd (human IL-13 (Peprotech) [9]): < 0.01 nM
koff (human IL-13 (Peprotech) [9]): 6e-06 s⁻¹
kon (human IL-13 (Peprotech) [9]): 1.45e+06 M⁻¹ s⁻¹
Kd [10]: 0.059 nM
koff [10]: 4.1e-05 s⁻¹
kon [10]: 700000 M⁻¹ s⁻¹
Kd [11]: 0.025 nM
Kd (human IL-13 (Peprotech) [12]): < 0.01 nM
Kd [13]: 0.076 nM
B1: 10C12.38.H6.87Y.58I/IL-13 IgG4 (bispecific antibody)
heavy 1: EVQLVESGGGLVQPGGSLRLSCAASGFTFSSFSMSWVRQAPGKGLEWVATISGGKTFTDYVDSVKGRFTISRDDSKNTLYLQMNSLRAEDTAVYYCTRANYGNWFFEVWGQGTLVTVSSASTKGPSVFPLAPCSRSTSESTAALGCLVKDYFPEPVTVSWNSGALTSGVHTFPAVLQSSGLYSLSSVVTVPSSSLGTKTYTCNVDHKPSNTKVDKRVESKYGPPCPPCPAPEFLGGPSVFLFPPKPKDTLMISRTPEVTCVVVDVSQEDPEVQFNWYVDGVEVHNAKTKPREEQFNSTYRVVSVLTVLHQDWLNGKEYKCKVSNKGLPSSIEKTISKAKGQPREPQVYTLPPSQEEMTKNQVSLSCAVKGFYPSDIAVEWESNGQPENNYKTTPPVLDSDGSFFLVSRLTVDKSRWQEGNVFSCSVMHEALHNHYTQKSLSLSLG
light 1: EIVLTQSPATLSLSPGERATLSCRASESVAKYGLSLLNWFQQKPGQPPRLLIFAASNRGSGIPARFSGSGSGTDFTLTISSLEPEDFAVYYCQQSKEVPFTFGQGTKVEIKRTVAAPSVFIFPPSDEQLKSGTASVVCLLNNFYPREAKVQWKVDNALQSGNSQESVTEQDSKDSTYSLSSTLTLSKADYEKHKVYACEVTHQGLSSPVTKSFNRGEC
heavy 2: not shown
light 2: DIVLTQSPDSLSVSLGERATINCRASKSVDSYGNSFMHWYQQKPGQPPKLLIYLASNLESGVPDRFSGSGSGTDFTLTISSLQAEDVAVYYCQQNNEDPRTFGGGTKVEIKRTVAAPSVFIFPPSDEQLKSGTASVVCLLNNFYPREAKVQWKVDNALQSGNSQESVTEQDSKDSTYSLSSTLTLSKADYEKHKVYACEVTHQGLSSPVTKSFNRGEC
notes: Knob-in-hole human IgG4 made in E. coli: anti-IL-33 arm as hole, anti-IL-13 arm (lebrikizumab CDRs; Q1E heavy, M4L light) as knob; also called 10C12-IL-13 KIH IgG4; 10C12-IL13 KIH IgG4
